Substitutions are numbered along the chain they refer to.
B1: a-syn-2 (1LBiGJFJC) (ssDNA)
DNA: ATAGTCCCATCATTCATTGTATGGTACGGCGCGGTGGCGGGTGCGGGGAGATATTAGCAAGTGTCA
B2: M5-15 (ssDNA)
DNA: B1 DNA with G46T
B3: a-syn-3 (GdJUhe) (ssDNA)
DNA: ATAGTCCCATCATTCATTGTATGAGATGGGGTGGTGACGTCAGCATGGAGATATTAGCAAGTGTCA
B4: a-syn-1 (1LBwAAjJ) (ssDNA)
DNA: ATAGTCCCATCATTCATTGTAAGGAAACGCTACGGGGTGGGTACGGCAAGATATTAGCAAGTGTCA

Key:
[1] = target: T1, alpha-synuclein (monomer) (UniProt P37840 P37840:1-140); test: MST; 1x PBS, 0.05% Tween-20, 25 C; 50 nM aptamer
[2] = target: T1, alpha-synuclein (monomer); test: footprint; DNase I; positive control; apparent Kd estimated from three bands but value not given in text; DPBS, 37 C
[3] = target: T1, alpha-synuclein (monomer); test: footprint; DNase I; apparent Kd estimated from three bands but value not given in text; DPBS, 37 C

Row | Binder | Kd [1] [nM] | further results
1 | B1 | 286 | 
2 | B2 |  | binding result [2]: binds
3 | B3 | 94.2 | 
4 | B4 |  | binding result [3]: binds
